Results on two molecules are retold here after PMC8216282, “Structural basis for the dynamics of human methionyl-tRNA synthetase in multi-tRNA synthetase complexes” (Nucleic Acids Research, 2021).

For series [1], the target named is T1, AIMP3 with the nanoluciferase large subunit at its N-terminus (LgBit-AIMP3) (human, UniProt O43324 1-174).
T1 construct: AIMP3, human; source: CHO-K1 cells, transfected, in live cells; not shown: LgBit (NanoLuc large subunit), N-terminal, kept
T1 sequence (looked up): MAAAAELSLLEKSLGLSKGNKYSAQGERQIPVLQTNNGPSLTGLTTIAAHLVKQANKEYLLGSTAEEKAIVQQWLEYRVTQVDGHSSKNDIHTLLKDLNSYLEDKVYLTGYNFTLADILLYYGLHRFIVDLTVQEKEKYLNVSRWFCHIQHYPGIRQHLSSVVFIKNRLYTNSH
Nature of the series: split reporter (BiFC, NanoBiT); NanoBiT; LgBit on the N- or C-terminus of AIMP3, SmBit on the N- or C-terminus of MRS or on AIMP3; co-expressed in CHO-K1 cells; luminescence measured with cell-permeable substrate. Particulars: partners not purified.

Series [2] deals with T2, MRS full-length (in MRS-AIMP3 complex);AIMP3 (in MRS-AIMP3 complex) (human;human?, UniProt P56192;O43324 1-900;1-174, |).
T2 sequence 1: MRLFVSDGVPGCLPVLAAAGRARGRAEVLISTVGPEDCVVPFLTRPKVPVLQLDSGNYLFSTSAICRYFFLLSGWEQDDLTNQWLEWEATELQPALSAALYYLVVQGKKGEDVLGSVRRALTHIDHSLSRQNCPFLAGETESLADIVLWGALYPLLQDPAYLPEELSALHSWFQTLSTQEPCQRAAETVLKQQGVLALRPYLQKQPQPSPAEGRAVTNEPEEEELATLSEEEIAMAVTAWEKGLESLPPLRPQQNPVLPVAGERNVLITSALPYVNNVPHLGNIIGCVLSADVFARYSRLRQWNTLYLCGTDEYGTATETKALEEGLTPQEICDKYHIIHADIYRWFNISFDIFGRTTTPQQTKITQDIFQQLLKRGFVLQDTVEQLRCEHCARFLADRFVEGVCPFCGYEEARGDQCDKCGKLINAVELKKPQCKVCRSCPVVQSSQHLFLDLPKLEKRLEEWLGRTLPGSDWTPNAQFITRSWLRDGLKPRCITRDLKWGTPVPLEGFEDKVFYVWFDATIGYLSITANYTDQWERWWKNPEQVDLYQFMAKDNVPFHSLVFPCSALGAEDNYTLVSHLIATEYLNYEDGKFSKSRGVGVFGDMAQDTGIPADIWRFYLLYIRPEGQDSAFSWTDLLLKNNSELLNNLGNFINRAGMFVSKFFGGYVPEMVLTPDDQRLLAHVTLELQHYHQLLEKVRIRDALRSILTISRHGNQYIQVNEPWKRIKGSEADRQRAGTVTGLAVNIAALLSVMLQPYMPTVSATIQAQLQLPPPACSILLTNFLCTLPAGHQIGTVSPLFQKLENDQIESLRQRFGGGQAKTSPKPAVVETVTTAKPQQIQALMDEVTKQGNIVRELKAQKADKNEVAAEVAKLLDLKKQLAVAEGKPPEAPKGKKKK
T2 sequence 2: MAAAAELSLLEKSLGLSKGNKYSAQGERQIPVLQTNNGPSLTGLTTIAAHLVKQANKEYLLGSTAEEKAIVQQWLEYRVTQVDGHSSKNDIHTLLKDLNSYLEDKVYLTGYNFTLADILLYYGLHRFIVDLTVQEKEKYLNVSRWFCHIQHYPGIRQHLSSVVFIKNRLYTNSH
Kind of series: MST; labeled RNA (80 nM); MST: PBS, 1-100 uM protein, 80 nM 6-FAM-RNA, temperature not stated; pull-down: 50 mM Tris-HCl pH 7.5, 150 mM NaCl, Ni-NTA (yeast total tRNA pool not listed). The following applies: protein: recombinant;recombinant; copies: 1;1; tRNA fold.

In series [3] the target is T3, MRS221-900 (methionyl-tRNA synthetase without N-terminal GST domain) (human, UniProt P56192 221-900).
T3 sequence: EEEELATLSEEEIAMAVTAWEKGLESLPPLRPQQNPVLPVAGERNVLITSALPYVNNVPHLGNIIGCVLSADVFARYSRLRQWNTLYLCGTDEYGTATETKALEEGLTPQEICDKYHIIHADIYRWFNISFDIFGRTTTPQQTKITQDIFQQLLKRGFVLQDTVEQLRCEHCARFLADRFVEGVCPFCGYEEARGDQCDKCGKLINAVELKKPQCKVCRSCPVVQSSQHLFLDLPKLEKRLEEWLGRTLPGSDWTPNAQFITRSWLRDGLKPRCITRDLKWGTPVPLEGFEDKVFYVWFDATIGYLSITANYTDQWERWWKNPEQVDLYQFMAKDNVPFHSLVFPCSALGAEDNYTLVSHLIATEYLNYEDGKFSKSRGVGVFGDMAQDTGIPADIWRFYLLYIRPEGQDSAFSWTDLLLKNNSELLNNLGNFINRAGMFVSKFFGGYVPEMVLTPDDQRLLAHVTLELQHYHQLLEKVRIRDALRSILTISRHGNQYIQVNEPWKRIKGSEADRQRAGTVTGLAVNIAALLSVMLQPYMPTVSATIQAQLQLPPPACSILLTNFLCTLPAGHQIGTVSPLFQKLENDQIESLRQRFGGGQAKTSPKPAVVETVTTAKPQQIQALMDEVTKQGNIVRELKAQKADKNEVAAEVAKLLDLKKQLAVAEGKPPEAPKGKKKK
Described as above. Particulars: protein: recombinant; tags: hexa-His; tRNA fold.

For series [4], the target named is T3, MRS221-900 (methionyl-tRNA synthetase …). Nature of the series: pull-down (Ni-NTA, fluorescence); almost 2-fold; MST: PBS, 1-100 uM protein, 80 nM 6-FAM-RNA, temperature not stated; pull-down: 50 mM Tris-HCl pH 7.5, 150 mM NaCl, Ni-NTA (yeast total tRNA pool not listed). The following applies: protein: recombinant, tags: hexa-His.

B1: MRS with the nanoluciferase small subunit at its N-terminus (SmBit-MRS) (enzyme, human, UniProt P56192 1-900, looked up)
chain: MRLFVSDGVPGCLPVLAAAGRARGRAEVLISTVGPEDCVVPFLTRPKVPVLQLDSGNYLFSTSAICRYFFLLSGWEQDDLTNQWLEWEATELQPALSAALYYLVVQGKKGEDVLGSVRRALTHIDHSLSRQNCPFLAGETESLADIVLWGALYPLLQDPAYLPEELSALHSWFQTLSTQEPCQRAAETVLKQQGVLALRPYLQKQPQPSPAEGRAVTNEPEEEELATLSEEEIAMAVTAWEKGLESLPPLRPQQNPVLPVAGERNVLITSALPYVNNVPHLGNIIGCVLSADVFARYSRLRQWNTLYLCGTDEYGTATETKALEEGLTPQEICDKYHIIHADIYRWFNISFDIFGRTTTPQQTKITQDIFQQLLKRGFVLQDTVEQLRCEHCARFLADRFVEGVCPFCGYEEARGDQCDKCGKLINAVELKKPQCKVCRSCPVVQSSQHLFLDLPKLEKRLEEWLGRTLPGSDWTPNAQFITRSWLRDGLKPRCITRDLKWGTPVPLEGFEDKVFYVWFDATIGYLSITANYTDQWERWWKNPEQVDLYQFMAKDNVPFHSLVFPCSALGAEDNYTLVSHLIATEYLNYEDGKFSKSRGVGVFGDMAQDTGIPADIWRFYLLYIRPEGQDSAFSWTDLLLKNNSELLNNLGNFINRAGMFVSKFFGGYVPEMVLTPDDQRLLAHVTLELQHYHQLLEKVRIRDALRSILTISRHGNQYIQVNEPWKRIKGSEADRQRAGTVTGLAVNIAALLSVMLQPYMPTVSATIQAQLQLPPPACSILLTNFLCTLPAGHQIGTVSPLFQKLENDQIESLRQRFGGGQAKTSPKPAVVETVTTAKPQQIQALMDEVTKQGNIVRELKAQKADKNEVAAEVAKLLDLKKQLAVAEGKPPEAPKGKKKK
notes: methionyl-tRNA synthetase, cytosolic, human; source: CHO-K1 cells, transfected, in live cells; not shown: SmBit (NanoLuc small subunit), N-terminal, kept
Consider B1, for which the “fold increase of luciferase activity over background” value in series [1] is over 120 fold.

B2: 6-FAM synthetic elongator tRNAMet (structured_RNA)
RNA: GCCUCGUUAGCGCAGUAGGUAGCGCGUCAGUCUCAUAAUCUGAAGGUCGUGAGUUCGAUCCUCACACGGGGCA
modifications: none stated (synthetic RNA)
For the molecule B2, the Kd came to 31.6 µM in series [2] and 12.8 µM in series [3]. The binding signal in series [4] is about 2 fold vs MRS-AIMP3 complex.

The Kd is the equilibrium constant for the complex coming apart.
